Numbering of substitutions follows the chain as printed.
B1: 453 (protein)
chain: LDNGLARTPTMGWLHWERFMCNLDCQEEPDSCISEKLFMEMAERMVSEGWKDAGYEYLCIDDCWMAPQRDSEGRLQADPQRFPHGIRQLANYVHSKGLKLGIYADVGNKTCAGFPGSFGYYDIDAQTFADWGVDLLKFDGCYCDSLENLADGYKHMSLALNRTGRSIVYSCEWPLYMWPFQKPNYTEIRQYCNHWRNFADIDDSWKSIKSILDWTSRNQERIVDVAGPGGWNDPDMLVIGNFGLSWDQQVTQMALWAIMAAPLFMSNDLLHISPQAKALLQDKDVIAINQDPLGKQGYQLRKGDNFEVWERPLSGDAWAVAIINRQEIGGPRSYTIPVASLGKGVACNPACFITQLLPVKRQLGFYNWTSRLKSHINPTGTVLLQLENTMQMSLKDLL
modifications: Synthetic Polypeptide sequence of Variant No. 453 of mature Human GLA
B2: 368 (protein)
chain: B1 chain with R44A, L270R
modifications: Synthetic Polypeptide sequence of Variant No. 368 of mature Human GLA
B3: 468 (protein)
chain: B1 chain with L270R, T389Q
modifications: Synthetic Polypeptide sequence of Variant No. 468 of mature Human GLA
B4: 462 (protein)
chain: B1 chain with L270R, Q385L
modifications: Synthetic Polypeptide sequence of Variant No. 462 of mature Human GLA
B5: 461 (protein)
chain: B1 chain with L270R, M392Q
modifications: Synthetic Polypeptide sequence of Variant No. 461 of mature Human GLA
B6: 455 (protein)
chain: B1 chain with L270R, M392D
modifications: Synthetic Polypeptide sequence of Variant No. 455 of mature Human GLA
B7: 467 (protein)
chain: B1 chain with L270R, T389S
modifications: Synthetic Polypeptide sequence of Variant No. 467 of mature Human GLA
B8: 463 (protein)
chain: B1 chain with L270R, M390T
modifications: Synthetic Polypeptide sequence of Variant No. 463 of mature Human GLA
B9: 367 (protein)
chain: B1 chain with M39R, L270R
modifications: Synthetic Polypeptide sequence of Variant No. 367 of mature Human GLA
B10: 457 (protein)
chain: B1 chain with L270R, M392A
modifications: Synthetic Polypeptide sequence of Variant No. 457 of mature Human GLA
B11: 460 (protein)
chain: B1 chain with L270R, L386T
modifications: Synthetic Polypeptide sequence of Variant No. 460 of mature Human GLA
B12: 459 (protein)
chain: B1 chain with L270R, M390H
modifications: Synthetic Polypeptide sequence of Variant No. 459 of mature Human GLA
B13: 454 (protein)
chain: B1 chain with L270R, M390P
modifications: Synthetic Polypeptide sequence of Variant No. 454 of mature Human GLA
B14: 456 (protein)
chain: B1 chain with L270R, T389M
modifications: Synthetic Polypeptide sequence of Variant No. 456 of mature Human GLA
B15: 465 (protein)
chain: B1 chain with L270R, M390Q
modifications: Synthetic Polypeptide sequence of Variant No. 465 of mature Human GLA
B16: 466 (protein)
chain: B1 chain with L270R, M392E
modifications: Synthetic Polypeptide sequence of Variant No. 466 of mature Human GLA

assay: HTP-analysis of supernatants pretreated with acid (MUGal hydrolysis); format: biochemical; details: activity of the variant/activity of Rd4BB (SEQ ID NO: 15); challenge at pH 3.7
Summary of the method: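 Supernatants from INVSc1 yeast secreting GLA variants were challenged at 37° C. for 1-3 h in McIlvaine buffer at pH 3.3-4.3. Residual activity was then measured on 4 mM MUGal substrate stock at pH 4.8 with citrate buffer pH 4.3, over 30-180 min at 37° C. Reactions were quenched with sodium carbonate and read by fluorescence (Ex 355/Em 448 nm).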

Molecule | Relative Activity of GLA Variants After Challenge at pH 3.7
B1 | − (<0.5 relative activity over Rd4BB (SEQ ID NO: 15))
B2 | + (0.5 to 1.5 relative activity over Rd4BB (SEQ ID NO: 15))
B3 | + (0.5 to 1.5 relative activity over Rd4BB (SEQ ID NO: 15))
B4 | + (0.5 to 1.5 relative activity over Rd4BB (SEQ ID NO: 15))
B5 | + (0.5 to 1.5 relative activity over Rd4BB (SEQ ID NO: 15))
B6 | + (0.5 to 1.5 relative activity over Rd4BB (SEQ ID NO: 15))
B7 | + (0.5 to 1.5 relative activity over Rd4BB (SEQ ID NO: 15))
B8 | + (0.5 to 1.5 relative activity over Rd4BB (SEQ ID NO: 15))
B9 | + (0.5 to 1.5 relative activity over Rd4BB (SEQ ID NO: 15))
B10 | + (0.5 to 1.5 relative activity over Rd4BB (SEQ ID NO: 15))
B11 | + (0.5 to 1.5 relative activity over Rd4BB (SEQ ID NO: 15))
B12 | ++ (>1.5 to 2.5 relative activity over Rd4BB (SEQ ID NO: 15))
B13 | ++ (>1.5 to 2.5 relative activity over Rd4BB (SEQ ID NO: 15))
B14 | + (0.5 to 1.5 relative activity over Rd4BB (SEQ ID NO: 15))
B15 | + (0.5 to 1.5 relative activity over Rd4BB (SEQ ID NO: 15))
B16 | + (0.5 to 1.5 relative activity over Rd4BB (SEQ ID NO: 15))

assay: HTP-analysis of supernatants pretreated with base (MUGal hydrolysis); format: biochemical; details: activity of the variant/activity of Rd4BB (SEQ ID NO: 15); challenge at pH 9.65
Summary of the method: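 GLA variants were secreted by transformed INVSc1 yeast grown 66-84 h at 30° C. Supernatants were exposed to neutral-to-basic buffers (pH 7.0-9.7) at 37° C for 1-18 h, then assayed with MUGal in acidic citrate/McIlvaine buffer, with fluorescence read after quenching.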

Molecule | Relative Activity of GLA Variants After Challenge at pH 9.65
B1 | − (<0.5 relative activity over Rd4BB (SEQ ID NO: 15))
B2 | + (0.5 to 1.5 relative activity over Rd4BB (SEQ ID NO: 15))
B3 | + (0.5 to 1.5 relative activity over Rd4BB (SEQ ID NO: 15))
B4 | + (0.5 to 1.5 relative activity over Rd4BB (SEQ ID NO: 15))
B5 | + (0.5 to 1.5 relative activity over Rd4BB (SEQ ID NO: 15))
B6 | + (0.5 to 1.5 relative activity over Rd4BB (SEQ ID NO: 15))
B7 | + (0.5 to 1.5 relative activity over Rd4BB (SEQ ID NO: 15))
B8 | + (0.5 to 1.5 relative activity over Rd4BB (SEQ ID NO: 15))
B9 | − (<0.5 relative activity over Rd4BB (SEQ ID NO: 15))
B10 | + (0.5 to 1.5 relative activity over Rd4BB (SEQ ID NO: 15))
B11 | + (0.5 to 1.5 relative activity over Rd4BB (SEQ ID NO: 15))
B12 | + (0.5 to 1.5 relative activity over Rd4BB (SEQ ID NO: 15))
B13 | + (0.5 to 1.5 relative activity over Rd4BB (SEQ ID NO: 15))
B14 | + (0.5 to 1.5 relative activity over Rd4BB (SEQ ID NO: 15))
B15 | + (0.5 to 1.5 relative activity over Rd4BB (SEQ ID NO: 15))
B16 | + (0.5 to 1.5 relative activity over Rd4BB (SEQ ID NO: 15))

assay: HTP-analysis of yeast culture supernatants, no challenge (MUGal hydrolysis); format: biochemical; details: activity of the variant/activity of Rd4BB (SEQ ID NO: 15)
Summary of the method: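 GLA variants expressed in yeast INVSc1, secreted into SD-Ura broth over 66-84 h at 30° C; clarified supernatants tested without challenge. Supernatant mixed with McIlvaine buffer pH 4.8 and 2 mM MUGal (citrate/KCl, pH 4.6), 37° C for 30-180 min, carbonate-quenched, fluorescence Ex 355/Em 448 nm.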

Molecule | Relative Activity of GLA Variants After No Challenge (NC)
B1 | + (0.5 to 1.5 relative activity over Rd4BB (SEQ ID NO: 15))
B2 | + (0.5 to 1.5 relative activity over Rd4BB (SEQ ID NO: 15))
B3 | + (0.5 to 1.5 relative activity over Rd4BB (SEQ ID NO: 15))
B4 | + (0.5 to 1.5 relative activity over Rd4BB (SEQ ID NO: 15))
B5 | + (0.5 to 1.5 relative activity over Rd4BB (SEQ ID NO: 15))
B6 | + (0.5 to 1.5 relative activity over Rd4BB (SEQ ID NO: 15))
B7 | + (0.5 to 1.5 relative activity over Rd4BB (SEQ ID NO: 15))
B8 | + (0.5 to 1.5 relative activity over Rd4BB (SEQ ID NO: 15))
B9 | + (0.5 to 1.5 relative activity over Rd4BB (SEQ ID NO: 15))
B10 | + (0.5 to 1.5 relative activity over Rd4BB (SEQ ID NO: 15))
B11 | + (0.5 to 1.5 relative activity over Rd4BB (SEQ ID NO: 15))
B12 | + (0.5 to 1.5 relative activity over Rd4BB (SEQ ID NO: 15))
B13 | + (0.5 to 1.5 relative activity over Rd4BB (SEQ ID NO: 15))
B14 | + (0.5 to 1.5 relative activity over Rd4BB (SEQ ID NO: 15))
B15 | + (0.5 to 1.5 relative activity over Rd4BB (SEQ ID NO: 15))
B16 | + (0.5 to 1.5 relative activity over Rd4BB (SEQ ID NO: 15))
